Test results from publication PMC10006238.

Legend:
[1] = target: VirC (Streptomyces virginiae); experiment: other fluorescence titration; tryptophan fluorescence quenching; VirC, VirD, VirD mutant or VirE at 5 μM in TE buffer (20 mM Tris-HCl pH 8.5, 2 mM EDTA), 25 °C, titrated with ACP ligand (0–150 μM); excitation 295 nm; one site-specific binding model; averaged data of two independent measurements
[2] = target: VirD (Streptomyces virginiae); experiment: as above
[3] = target: VirD (Streptomyces virginiae); experiment: SAXS; SEC-coupled SAXS (SWING beamline, Bio-SEC 100 Å column), 15 °C, 20 mM Tris-HCl pH 8.5, 300 mM NaCl, 5% glycerol, 50 μL at 5 mg/mL; curves compared with crystal structures or models (CRYSOL, SASREF)
[4] = target: VirE (Streptomyces virginiae); experiment: other fluorescence titration; tryptophan fluorescence quenching; VirC, VirD, VirD mutant or VirE at 5 μM in TE buffer (20 mM Tris-HCl pH 8.5, 2 mM EDTA), 25 °C, titrated with ACP ligand (0–150 μM); excitation 295 nm; one site-specific binding model; averaged data of two independent measurements
[5] = target: VirE (Streptomyces virginiae); experiment: SAXS; SEC-coupled SAXS (SWING beamline, Bio-SEC 100 Å column), 15 °C, 20 mM Tris-HCl pH 8.5, 300 mM NaCl, 5% glycerol, 50 μL at 5 mg/mL; curves compared with crystal structures or models (CRYSOL, SASREF)
[6] = target: Se-VirD (Streptomyces virginiae); experiment: crystal structure; Se-VirD alone, 20% PEG 400, 20% PEG 800, 100 mM Tris-HCl pH 7.5; space group P4(1)2(1)2; Se-SAD, 1.7 Å
[7] = target: Se-VirD (Streptomyces virginiae); experiment: crystal structure; holo-ACP5b–Se-VirD complex, hanging drop, ratio 1:4, 100 mM calcium chloride, 30% PEG 1500, 10% 2-propanol, 100 mM imidazole-HCl pH 6.5; space group H3; 2.1 Å
[8] = target: VirD E128Q (Streptomyces virginiae); experiment: other fluorescence titration; tryptophan fluorescence quenching; VirC, VirD, VirD mutant or VirE at 5 μM in TE buffer (20 mM Tris-HCl pH 8.5, 2 mM EDTA), 25 °C, titrated with ACP ligand (0–150 μM); excitation 295 nm; one site-specific binding model; averaged data of two independent measurements

Molecule	Kd [1] [µM]	Kd [2] [µM]	Kd [4] [µM]	also measured
apo-Sna ACP7 (domain or fragment)	78	166		
VirD (enzyme)				stoichiometry N [3]: 3
apo-ACP7 (domain or fragment)	75	75	301	
VirE (enzyme)				stoichiometry N [5]: 3
holo-Sna ACP7 (domain or fragment)	13	13		
holo-ACP7 (domain or fragment)	18	4.3	22	
holo-ACP5a-ACP5b didomain (domain or fragment)	17	19	42	
Se-VirD (enzyme)				stoichiometry N [6]: 3; stoichiometry N [7]: 3
acetoacetyl-ACP5b (domain or fragment, acetoacetyl form (acetoacetate as substrate mimic on the phosphopantetheine)) GPGSAVAVDPAPVARALREELARTLYCEPGDIDDEASFNTLGLDSILGVEFVAFVNQTYGLDEKAGILYDHPSLAALSRHVAGRAAPV	4.3			
apo-ACP5b (domain or fragment) GPGSAVAVDPAPVARALREELARTLYCEPGDIDDEASFNTLGLDSILGVEFVAFVNQTYGLDEKAGILYDHPSLAALSRHVAGRAAPV	77	178	171	
methylcrotonyl-ACP5b (domain or fragment, methylcrotonyl form (3-methylcrotonate as substrate mimic on the phosphopantetheine)) GPGSAVAVDPAPVARALREELARTLYCEPGDIDDEASFNTLGLDSILGVEFVAFVNQTYGLDEKAGILYDHPSLAALSRHVAGRAAPV			30	
HMG-ACP5b (domain or fragment, HMG form ((RS)-3-hydroxy-3-methylglutarate as substrate mimic on the phosphopantetheine)) GPGSAVAVDPAPVARALREELARTLYCEPGDIDDEASFNTLGLDSILGVEFVAFVNQTYGLDEKAGILYDHPSLAALSRHVAGRAAPV		39		Kd [8]: 33 µM
holo-ACP5b (domain or fragment, phosphopantetheine (Ppant) on S6871) GPGSAVAVDPAPVARALREELARTLYCEPGDIDDEASFNTLGLDSILGVEFVAFVNQTYGLDEKAGILYDHPSLAALSRHVAGRAAPV	3.8	2.9	6.8	
apo-ACP5a (domain or fragment) GPGSAGRQEEIAEEVARLLAGVLYLEPDRLDPEETFLTLGVDSILGVEFVAAVNAAYPVGVKATALYDHPTPAAFARHIAESLGA	166	102	653	
apo-ACP5a L6764N (domain or fragment) GPGSAGRQEEIAEEVARLLAGVLYLEPDRLDPEETFNTLGVDSILGVEFVAAVNAAYPVGVKATALYDHPTPAAFARHIAESLGA	89	83		
holo-ACP5a E6761A/L6764N (domain or fragment, phosphopantetheine (holo form)) GPGSAGRQEEIAEEVARLLAGVLYLEPDRLDPEATFNTLGVDSILGVEFVAAVNAAYPVGVKATALYDHPTPAAFARHIAESLGA	10	7		
apo-ACP5a E6761A (domain or fragment) GPGSAGRQEEIAEEVARLLAGVLYLEPDRLDPEATFLTLGVDSILGVEFVAAVNAAYPVGVKATALYDHPTPAAFARHIAESLGA	108	186		
methylcrotonyl-ACP5a (domain or fragment, methylcrotonyl form (3-methylcrotonate as substrate mimic on the phosphopantetheine)) GPGSAGRQEEIAEEVARLLAGVLYLEPDRLDPEETFLTLGVDSILGVEFVAAVNAAYPVGVKATALYDHPTPAAFARHIAESLGA			287	
apo-ACP5a E6761A/L6764N (domain or fragment) GPGSAGRQEEIAEEVARLLAGVLYLEPDRLDPEATFNTLGVDSILGVEFVAAVNAAYPVGVKATALYDHPTPAAFARHIAESLGA	61	117		
HMG-ACP5a (domain or fragment, HMG form ((RS)-3-hydroxy-3-methylglutarate as substrate mimic on the phosphopantetheine)) GPGSAGRQEEIAEEVARLLAGVLYLEPDRLDPEETFLTLGVDSILGVEFVAAVNAAYPVGVKATALYDHPTPAAFARHIAESLGA		51		
holo-ACP5a L6764N (domain or fragment, phosphopantetheine (holo form)) GPGSAGRQEEIAEEVARLLAGVLYLEPDRLDPEETFNTLGVDSILGVEFVAAVNAAYPVGVKATALYDHPTPAAFARHIAESLGA	11	4.1		
holo-ACP5a E6761A (domain or fragment, phosphopantetheine (holo form)) GPGSAGRQEEIAEEVARLLAGVLYLEPDRLDPEATFLTLGVDSILGVEFVAAVNAAYPVGVKATALYDHPTPAAFARHIAESLGA	4.7	6.1		
acetoacetyl-ACP5a (domain or fragment, acetoacetyl form (acetoacetate as substrate mimic on the phosphopantetheine)) GPGSAGRQEEIAEEVARLLAGVLYLEPDRLDPEETFLTLGVDSILGVEFVAAVNAAYPVGVKATALYDHPTPAAFARHIAESLGA	40			
